Experimental data taken from patent US20140087995A1 (published 2014).
Read-outs that look alike come from different tables or passages of the source. Numbered stars: 1 amine (or outer) side, 2 acyl side, 3 side chain; on linkers, the order of the positions; unused ones are H or OH. Bridge positions count the residues as written; N and C are the ends. Side chains are listed from the residue outwards. Ends that are not written are not given here. * marks the point of attachment. C20 diacid = O=C(O)CCCCCCCCCCCCCCCCCCC(=O)*; γGlu = O=C(O)[C@H](CCC(=O)[*:2])N[*:1]

Legend:
[1] = molecular target: T1, human amylin receptor (amylin 3(a) receptor: human calcitonin receptor co-expressed with RAMP-3) (human, UniProt P30988 25-474; O60896 24-148, limits assumed); assay: cell-based or functional assay
T1 sequence (looked up) 1: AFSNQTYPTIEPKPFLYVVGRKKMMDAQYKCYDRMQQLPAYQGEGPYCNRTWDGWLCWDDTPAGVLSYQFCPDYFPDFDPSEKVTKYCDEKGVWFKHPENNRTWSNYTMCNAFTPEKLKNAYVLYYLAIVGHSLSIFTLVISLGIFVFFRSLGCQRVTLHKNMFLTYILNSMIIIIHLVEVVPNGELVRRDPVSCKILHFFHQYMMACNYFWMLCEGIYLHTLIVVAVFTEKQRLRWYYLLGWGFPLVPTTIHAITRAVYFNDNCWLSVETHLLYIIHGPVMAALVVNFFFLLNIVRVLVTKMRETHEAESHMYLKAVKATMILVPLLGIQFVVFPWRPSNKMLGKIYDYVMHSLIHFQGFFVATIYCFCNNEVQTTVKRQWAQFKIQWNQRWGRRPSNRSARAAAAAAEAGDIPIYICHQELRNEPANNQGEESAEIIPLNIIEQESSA
T1 sequence (looked up) 2: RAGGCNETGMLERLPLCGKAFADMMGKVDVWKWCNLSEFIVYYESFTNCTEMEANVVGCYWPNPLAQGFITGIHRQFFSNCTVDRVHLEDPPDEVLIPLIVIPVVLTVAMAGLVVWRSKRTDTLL

[2] = molecular target: T2, human calcitonin receptor (human, UniProt P30988 25-474); assay: cell-based or functional assay
T2 sequence (looked up): T1 sequence (looked up) 1

[3] = molecular target: T1, human amylin receptor (amylin 3(a) …); assay: SPA competition against 125I-rat amylin, membranes of Amylin 3(a)/CRE-luc BHK cells (Assay V)
Protocol: (§1) The binding assay was performed using scintillation proximity assay (SPA) beads (RPNQ0001) from PerkinElmer and cell membranes from the Amylin 3(a)/CRE-luc cells (as described in Assay (II)) were used. Membranes were prepared in the following way; the cells were rinsed with PBS and incubated with Versene for approximately 5 min before harvesting. The cells were flushed with PBS and the cell-suspension was centrifuged for 5 min at 1000 rpm. Cells were homogenized (ultrathurrax) in a buffer containing 20 mM Na-HEPES and 10 mM EDTA (pH 7.4) and centrifuged at 20.000 rpm for 15 min. The resulting pellet was resuspended, homogenized and centrifuged (20.000 rpm, 15 min) in a buffer containing 20 mM Na-HEPES and 0.1 mM EDTA (pH 7.4, buffer 2). The resulting pellet was resuspended in buffer 2 and protein concentration was measured (BCA protein Assay, Pierce). The homogenate was kept cold during the whole procedure. The membranes were kept at −80° C. until use. The assay was performed in a 384 well Optiplate (PerkinElmer) in a total volume of 40 ul. Membranes were mixed with SPA beads. Final concentration of membranes 35 ng/μL final and SPA beads was 0.05 mg/well. […] Samples were analyzed on TopCounter™ (Packard). The IC₅₀ was calculated using (one site binding competition analysis) GraphPad Prism5 as a measure of receptor affinity.

[4] = molecular target: T3, human amylin receptor (amylin 3(a) receptor: human calcitonin receptor with RAMP-3) (human, UniProt P30988 25-474; O60896 24-148, limits assumed); assay: SPA competition binding on membranes of BHK cells with human calcitonin receptor + RAMP-3; displacement of 125I-rat amylin (Assay V)
T3 construct: whole, on cells; Whole cells in the luciferase assay (Assay II a); also called hAmylin-R; hAmylinR
T3 sequence (looked up) 1: T1 sequence (looked up) 1
T3 sequence (looked up) 2: T1 sequence (looked up) 2
In short: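 SPA beads with BHK Amylin 3(a)/CRE-luc cell membranes (35 ng/μL final) in 50 mM Hepes pH 7.4, 1 mM CaCl2, 5 mM MgCl₂, 0.1% OA, 0.02% Tween20.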

[5] = molecular target: T3, human amylin receptor (amylin 3(a) …); assay: cell-based or functional assay
[6] = molecular target: T4, human calcitonin receptor (human, UniProt P30988 25-474); assay: cell-based or functional assay; remark: listed apart in the source
T4 sequence (looked up): T1 sequence (looked up) 1

[7] = molecular target: T5, human amylin 3(a) receptor (human calcitonin receptor co-expressed with RAMP-3) (human, UniProt P30988 25-474; O60896 24-148, limits assumed); assay: SPA competition vs 125I-rat amylin, membranes of BHK Amylin 3(a)/CRE-luc cells (Assay V)
T5 construct: whole, on cells; Whole BHK amylin 3(a)-receptor/CRE-luc cells in the functional assay (Assay II a); also called hAmylin-R; hAmylinR
T5 sequence (looked up) 1: T1 sequence (looked up) 1
T5 sequence (looked up) 2: T1 sequence (looked up) 2
Protocol: as §1

[8] = molecular target: T5, human amylin 3(a) receptor (human …); assay: cell-based or functional assay
[9] = molecular target: T6, human amylin receptor (amylin 3(a) receptor: human calcitonin receptor co-expressed with RAMP-3) (human, UniProt P30988 25-474; O60896 24-148, limits assumed); assay: SPA competition binding on membranes of Amylin 3(a)/CRE-luc BHK cells, displacement of 125I-rat amylin (Assay V)
T6 construct: whole, on cells; Functional EC50: the whole cells (Assay II a); also called hAmylin-R; hAmylinR
T6 sequence (looked up) 1: T1 sequence (looked up) 1
T6 sequence (looked up) 2: T1 sequence (looked up) 2
Protocol: as §1

[10] = molecular target: T6, human amylin receptor (amylin 3(a) …); assay: cell-based or functional assay; remark: listed apart in the source
[11] = molecular target: T7, human calcitonin receptor (human, UniProt P30988 25-474); assay: cell-based or functional assay; remark: listed apart in the source
T7 sequence (looked up): T1 sequence (looked up) 1

B1: N^ε1-[(4S)-4-carboxy-4-(19-carboxynonadecanoylamino)butanoyl]-[His14,Arg17,Pro21,Pro27,Pro34]-h-amylin (peptide)
peptide: K([γGlu-C20 diacid])CNTATCATQRLAHFLRHSSPNFGAIPSSTNVGPNTY-NH2
modifications: disulfide 2-7; N-terminus assumed
SMILES: CC[C@H](C)[C@H](NC(=O)[C@H](C)NC(=O)CNC(=O)[C@H](Cc1ccccc1)NC(=O)[C@H](CC(N)=O)NC(=O)[C@@H]1CCCN1C(=O)[C@H](CO)NC(=O)[C@H](CO)NC(=O)[C@H](Cc1c[nH]cn1)NC(=O)[C@H](CCCNC(=N)N)NC(=O)[C@H](CC(C)C)NC(=O)[C@H](Cc1ccccc1)NC(=O)[C@H](Cc1c[nH]cn1)NC(=O)[C@H](C)NC(=O)[C@H](CC(C)C)NC(=O)[C@H](CCCNC(=N)N)NC(=O)[C@H](CCC(N)=O)NC(=O)[C@@H](NC(=O)[C@H](C)NC(=O)[C@@H]1CSSC[C@H](NC(=O)[C@@H](N)CCCCNC(=O)CC[C@H](NC(=O)CCCCCCCCCCCCCCCCCCC(=O)O)C(=O)O)C(=O)N[C@@H](CC(N)=O)C(=O)N[C@@H]([C@@H](C)O)C(=O)N[C@@H](C)C(=O)N[C@@H]([C@@H](C)O)C(=O)N1)[C@@H](C)O)C(=O)N1CCC[C@H]1C(=O)N[C@@H](CO)C(=O)N[C@@H](CO)C(=O)N[C@H](C(=O)N[C@@H](CC(N)=O)C(=O)N[C@H](C(=O)NCC(=O)N1CCC[C@H]1C(=O)N[C@@H](CC(N)=O)C(=O)N[C@H](C(=O)N[C@@H](Cc1ccc(O)cc1)C(N)=O)[C@@H](C)O)C(C)C)[C@@H](C)O
notes: also called compound 67
[1]
  hAmylin-R funct. EC50: 0.069 nM
[2]
  Ratio hCT/hAmylin funct. (hCTR EC50 against hAmylin-R EC50): 5.2
  hCTR funct. EC50: 0.354 nM
[3]
  IC50: 0.09 nM

B2: N^α1-[(4S)-4-carboxy-4-(19-carboxynonadecanoylamino)butanoyl]-[Glu14,Arg17,Pro21,Pro27,Arg35]-h-amylin (peptide)
peptide: {C20 diacid-γGlu}-KCNTATCATQRLAEFLRHSSPNFGAIPSSTNVGSRTY-NH2
modifications: disulfide 2-7
SMILES: CC[C@H](C)[C@H](NC(=O)[C@H](C)NC(=O)CNC(=O)[C@H](Cc1ccccc1)NC(=O)[C@H](CC(N)=O)NC(=O)[C@@H]1CCCN1C(=O)[C@H](CO)NC(=O)[C@H](CO)NC(=O)[C@H](Cc1c[nH]cn1)NC(=O)[C@H](CCCNC(=N)N)NC(=O)[C@H](CC(C)C)NC(=O)[C@H](Cc1ccccc1)NC(=O)[C@H](CCC(=O)O)NC(=O)[C@H](C)NC(=O)[C@H](CC(C)C)NC(=O)[C@H](CCCNC(=N)N)NC(=O)[C@H](CCC(N)=O)NC(=O)[C@@H](NC(=O)[C@H](C)NC(=O)[C@@H]1CSSC[C@H](NC(=O)[C@H](CCCCN)NC(=O)CC[C@H](NC(=O)CCCCCCCCCCCCCCCCCCC(=O)O)C(=O)O)C(=O)N[C@@H](CC(N)=O)C(=O)N[C@@H]([C@@H](C)O)C(=O)N[C@@H](C)C(=O)N[C@@H]([C@@H](C)O)C(=O)N1)[C@@H](C)O)C(=O)N1CCC[C@H]1C(=O)N[C@@H](CO)C(=O)N[C@@H](CO)C(=O)N[C@H](C(=O)N[C@@H](CC(N)=O)C(=O)N[C@H](C(=O)NCC(=O)N[C@@H](CO)C(=O)N[C@@H](CCCNC(=N)N)C(=O)N[C@H](C(=O)N[C@@H](Cc1ccc(O)cc1)C(N)=O)[C@@H](C)O)C(C)C)[C@@H](C)O
notes: also called compound 16
[4]
  IC50: 0.894 nM
[5]
  hAmylin-R funct. EC50 (pM): 363 pM
[6]
  Ratio hCT/hAmylin funct.: 6.1 ratio
  hCTR funct. EC50 (pM): 2220 pM

B3: N^α1-[2-[2-[2-[[2-[2-[2-[[(4S)-4-carboxy-4-(19-carboxynonadecanoylamino)butanoyl]amino]ethoxy]ethoxy]acetyl]amino]ethoxy]ethoxy]acetyl]-[Arg17,Pro21,Pro27]-h-am … (peptide)
peptide: KCNTATCATQRLANFLRHSSPNFGAIPSSTNVGSNTY
modifications: alpha-amino group of N-terminal Lys1 acylated with C20 diacid via linker gGlu-2xOEG; disulfide bridge Cys2-Cys7 and C-terminal amide as in human amylin
notes: also called compound 24
[7]
  IC50: 1.14 nM
[8]
  Ratio hCT/hAmylin funct. (hCTR EC50 over hAmylin-R EC50): 23.1
  hAmylin-R funct. EC50 (pM): 433 pM

B4: N^ε1-[(4S)-4-carboxy-4-(19-carboxynonadecanoylamino)butanoyl]-[His14,Arg17,Pro21,Pro27,Pro34]-h-amylin (peptide)
peptide: K([γGlu-C20 diacid])CNTATCATQRLAHFLRHSSPNFGAIPSSTNVGPNTY-NH2
modifications: disulfide 2-7; N-terminus assumed
SMILES: CC[C@H](C)[C@H](NC(=O)[C@H](C)NC(=O)CNC(=O)[C@H](Cc1ccccc1)NC(=O)[C@H](CC(N)=O)NC(=O)[C@@H]1CCCN1C(=O)[C@H](CO)NC(=O)[C@H](CO)NC(=O)[C@H](Cc1c[nH]cn1)NC(=O)[C@H](CCCNC(=N)N)NC(=O)[C@H](CC(C)C)NC(=O)[C@H](Cc1ccccc1)NC(=O)[C@H](Cc1c[nH]cn1)NC(=O)[C@H](C)NC(=O)[C@H](CC(C)C)NC(=O)[C@H](CCCNC(=N)N)NC(=O)[C@H](CCC(N)=O)NC(=O)[C@@H](NC(=O)[C@H](C)NC(=O)[C@@H]1CSSC[C@H](NC(=O)[C@@H](N)CCCCNC(=O)CC[C@H](NC(=O)CCCCCCCCCCCCCCCCCCC(=O)O)C(=O)O)C(=O)N[C@@H](CC(N)=O)C(=O)N[C@@H]([C@@H](C)O)C(=O)N[C@@H](C)C(=O)N[C@@H]([C@@H](C)O)C(=O)N1)[C@@H](C)O)C(=O)N1CCC[C@H]1C(=O)N[C@@H](CO)C(=O)N[C@@H](CO)C(=O)N[C@H](C(=O)N[C@@H](CC(N)=O)C(=O)N[C@H](C(=O)NCC(=O)N1CCC[C@H]1C(=O)N[C@@H](CC(N)=O)C(=O)N[C@H](C(=O)N[C@@H](Cc1ccc(O)cc1)C(N)=O)[C@@H](C)O)C(C)C)[C@@H](C)O
notes: also called compound 67
[9]
  IC50: 0.09 nM
[10]
  hAmylin-R funct. EC50: 0.069 nM
[11]
  hCTR funct. EC50: 0.354 nM
